{"source": "paper PMC6451099", "about": "(Nucleic Acids Research, 2019)", "binders": {"B1": {"name": "FLAG-eEF1BδL (purified) (natural protein)", "chain": "MRSGKASCTLETVWEDKHKYEEAERRFYEHEATQAAASAQQLPAEGPAMNGPGQDDPEDADEAEAPDGGSRRDPRKSQDSRKPLQKKRKRSPKSGLGPADLALLGLSAERVWLDKSLFDQAESSYRQKLADVAAQAAWPPALAPWGLCTHGNQVACHHVTWGIWVNKSSFDQAERAFVEWSQALLLAPDGSRRQGTPNTGQQVAVPDLAHQPSPPVNGQPPLGSLQALVREVWLEKPRYDAAERGFYEALFDGHPPGKVRLQERAGLAEGARRGRRDRRGRNILGNKRAGLRRADGEAPSALPYCYFLQKDAEAPWLSKPAYDSAECRHHAAEALRVAWCLEAASLSHRPGPRSGLSVSSLRPNRKMATNFLAHEKIWFDKFKYDDAERRFYEQMNGPVAGASRQENGASVILRDIARARENIQKSLAGSSGPGASSGTSGDHGELVVRIASLEVENQSLRGVVQELQQAISKLEARLNVLEKSSPGHRATAPQTQHVSPMRQVEPPAKKPATPAEDDEDDDIDLFGSDNEEEDKEAAQLREERLRQYAEKKAKKPALVAKSSILLDVKPWDDETDMAQLEACVRSIQLDGLVWGASKLVPVGYGIRKLQIQCVVEDDKVGTDLLEEEITKFEEHVQSVDIAAFNKI"}, "B2": {"name": "His-HSF1 (purified) (natural protein, human, UniProt Q00613 1-529, looked up)", "chain": "MDLPVGPGAAGPSNVPAFLTKLWTLVSDPDTDALICWSPSGNSFHVFDQGQFAKEVLPKYFKHNNMASFVRQLNMYGFRKVVHIEQGGLVKPERDDTEFQHPCFLRGQEQLLENIKRKVTSVSTLKSEDIKIRQDSVTKLLTDVQLMKGKQECMDSKLLAMKHENEALWREVASLRQKHAQQQKVVNKLIQFLISLVQSNRILGVKRKIPLMLNDSGSAHSMPKYSRQFSLEHVHGSGPYSAPSPAYSSSSLYAPDAVASSGPIISDITELAPASPMASPGGSIDERPLSSSPLVRVKEEPPSPPQSPRVEEASPGRPSSVDTLLSPTALIDSILRESEPAPASVTALTDARGHTDTEGRPPSPPPTSTPEKCLSVACLDKNELSDHLDAMDSNLDNLQTMLSSHGFSVDTSALLDLFSPSVTVPDMSLPDLDSSLASIQELLSPQEPPRPPEAENSSPDSGKQLVHYTAQPLFLLDPGSVDTGSNDLPVLFELGEGSYFSEGDGFAEDPTISLLTGSEPPKAKDPTVS"}}, "assay_in_all_cases": "pull-down", "key": {"GST-RNF20/FLAG-RNF40": {"biological_target": "GST-RNF20/FLAG-RNF40 (human, UniProt Q5VTR2 1-975; O75150 1-1001)", "sequence (Q5VTR2 whole entry, chain 1 of 2)": "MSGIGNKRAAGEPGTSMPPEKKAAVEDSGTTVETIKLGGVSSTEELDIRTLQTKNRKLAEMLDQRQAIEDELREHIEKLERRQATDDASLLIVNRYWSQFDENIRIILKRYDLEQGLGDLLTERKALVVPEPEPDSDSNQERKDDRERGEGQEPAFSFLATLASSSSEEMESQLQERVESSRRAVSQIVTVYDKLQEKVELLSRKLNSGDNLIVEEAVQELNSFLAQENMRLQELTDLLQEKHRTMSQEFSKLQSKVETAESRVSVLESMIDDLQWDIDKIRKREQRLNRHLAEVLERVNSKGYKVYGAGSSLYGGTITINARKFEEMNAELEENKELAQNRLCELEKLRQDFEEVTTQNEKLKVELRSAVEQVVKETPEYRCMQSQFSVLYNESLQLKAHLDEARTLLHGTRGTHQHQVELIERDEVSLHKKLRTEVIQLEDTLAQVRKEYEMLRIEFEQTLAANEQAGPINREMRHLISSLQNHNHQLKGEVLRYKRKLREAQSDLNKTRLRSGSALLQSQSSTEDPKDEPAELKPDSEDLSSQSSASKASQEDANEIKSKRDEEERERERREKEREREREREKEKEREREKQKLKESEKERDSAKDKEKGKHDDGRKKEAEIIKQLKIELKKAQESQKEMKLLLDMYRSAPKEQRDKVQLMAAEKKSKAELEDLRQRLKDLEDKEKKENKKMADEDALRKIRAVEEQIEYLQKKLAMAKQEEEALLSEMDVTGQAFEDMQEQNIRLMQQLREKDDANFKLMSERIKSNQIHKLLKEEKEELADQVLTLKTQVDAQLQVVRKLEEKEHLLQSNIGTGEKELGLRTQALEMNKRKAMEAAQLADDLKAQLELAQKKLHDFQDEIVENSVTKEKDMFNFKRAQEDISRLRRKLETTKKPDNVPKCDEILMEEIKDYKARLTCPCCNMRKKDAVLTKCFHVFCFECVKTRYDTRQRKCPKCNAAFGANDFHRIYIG", "sequence (O75150 whole entry, chain 2 of 2)": "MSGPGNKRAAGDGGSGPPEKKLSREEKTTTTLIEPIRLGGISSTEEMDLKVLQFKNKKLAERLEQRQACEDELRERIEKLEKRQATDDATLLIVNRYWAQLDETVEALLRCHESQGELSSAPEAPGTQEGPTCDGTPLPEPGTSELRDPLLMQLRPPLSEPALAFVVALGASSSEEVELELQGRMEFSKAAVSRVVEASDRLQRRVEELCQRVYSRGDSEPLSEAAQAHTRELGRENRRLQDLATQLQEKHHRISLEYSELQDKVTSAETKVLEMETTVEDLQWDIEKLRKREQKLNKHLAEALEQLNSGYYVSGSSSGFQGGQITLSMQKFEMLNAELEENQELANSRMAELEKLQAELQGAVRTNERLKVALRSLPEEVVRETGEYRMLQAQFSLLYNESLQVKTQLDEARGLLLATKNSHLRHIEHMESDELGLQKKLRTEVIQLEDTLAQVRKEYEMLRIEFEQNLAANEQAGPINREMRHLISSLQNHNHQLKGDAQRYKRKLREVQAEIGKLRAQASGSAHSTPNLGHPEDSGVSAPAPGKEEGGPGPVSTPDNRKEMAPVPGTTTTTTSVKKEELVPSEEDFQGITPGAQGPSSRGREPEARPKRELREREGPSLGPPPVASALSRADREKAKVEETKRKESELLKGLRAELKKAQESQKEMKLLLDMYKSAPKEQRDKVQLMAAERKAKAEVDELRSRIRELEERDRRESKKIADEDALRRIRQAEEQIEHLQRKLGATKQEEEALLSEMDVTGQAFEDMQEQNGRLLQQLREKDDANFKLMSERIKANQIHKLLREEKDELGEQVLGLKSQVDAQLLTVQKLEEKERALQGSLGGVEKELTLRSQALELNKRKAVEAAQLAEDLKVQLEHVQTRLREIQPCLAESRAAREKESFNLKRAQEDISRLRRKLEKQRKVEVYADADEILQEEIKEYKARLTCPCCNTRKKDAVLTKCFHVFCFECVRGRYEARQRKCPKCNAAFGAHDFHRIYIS"}, "His-HSF1 (purified)": {"biological_target": "B2"}, "FLAG-eEF1BδL (purified)": {"biological_target": "B1"}}}
{"binder": "B1", "values": [{"measurement": "binding result", "setting": "GST-RNF20/FLAG-RNF40", "result": "binds"}]}
{"binder": "GST-eEF1BδL fragment of residues 181–367 (domain or fragment, human, UniProt P29692-2 181-367, looked up) SQALLLAPDGSRRQGTPNTGQQVAVPDLAHQPSPPVNGQPPLGSLQALVREVWLEKPRYDAAERGFYEALFDGHPPGKVRLQERAGLAEGARRGRRDRRGRNILGNKRAGLRRADGEAPSALPYCYFLQKDAEAPWLSKPAYDSAECRHHAAEALRVAWCLEAASLSHRPGPRSGLSVSSLRPNRKM", "values": [{"measurement": "binding result", "setting": "His-HSF1 (purified)", "result": "binds"}]}
{"binder": "B2", "values": [{"measurement": "binding result", "setting": "FLAG-eEF1BδL (purified)", "result": "binds"}]}
